According to IntAct's records for PubMed 24217340:

B1: Suppressor of fused homolog (Homo sapiens), Q9UMX1 (parent)
chain: MAELRPSGAPGPTAPPAPGPTAPPAFASLFPPGLHAIYGECRRLYPDQPNPLQVTAIVKYWLGGPDPLDYVSMYRNVGSPSANIPEHWHYISFGLSDLYGDNRVHEFTGTDGPSGFGFELTFRLKRETGESAPPTWPAELMQGLARYVFQSENTFCSGDHVSWHSPLDNSESRIQHMLLTEDPQMQPVQTPFGVVTFLQIVGVCTEELHSAQQWNGQGILELLRTVPIAGGPWLITDMRRGETIFEIDPHLQERVDKGIETDGSNLSGVSAKCAWDDLSRPPEDDEDSRSICIGTQPRRLSGKDTEQIRETLRRGLEINSKPVLPPINPQRQNGLAHDRAPSRKDSLESDSSTAIIPHELIRTRQLESVHLKFNQESGALIPLCLRGRLLHGRHFTYKSITGDMAITFVSTGVEGAFATEEHPYAAHGPWLQILLTEEFVEKMLEDLEDLTSPEEFKLPKEYSWPEKKLKVSILPDVVFDSPLH
B2: Zinc finger protein GLI1 (Homo sapiens), P08151 (parent)
chain: MFNSMTPPPISSYGEPCCLRPLPSQGAPSVGTEGLSGPPFCHQANLMSGPHSYGPARETNSCTEGPLFSSPRSAVKLTKKRALSISPLSDASLDLQTVIRTSPSSLVAFINSRCTSPGGSYGHLSIGTMSPSLGFPAQMNHQKGPSPSFGVQPCGPHDSARGGMIPHPQSRGPFPTCQLKSELDMLVGKCREEPLEGDMSSPNSTGIQDPLLGMLDGREDLEREEKREPESVYETDCRWDGCSQEFDSQEQLVHHINSEHIHGERKEFVCHWGGCSRELRPFKAQYMLVVHMRRHTGEKPHKCTFEGCRKSYSRLENLKTHLRSHTGEKPYMCEHEGCSKAFSNASDRAKHQNRTHSNEKPYVCKLPGCTKRYTDPSSLRKHVKTVHGPDAHVTKRHRGDGPLPRAPSISTVEPKREREGGPIREESRLTVPEGAMKPQPSPGAQSSCSSDHSPAGSAANTDSGVEMTGNAGGSTEDLSSLDEGPCIAGTGLSTLRRLENLRLDQLHQLRPIGTRGLKLPSLSHTGTTVSRRVGPPVSLERRSSSSSSISSAYTVSRRSSLASPFPPGSPPENGASSLPGLMPAQHYLLRARYASARGGGTSPTAASSLDRIGGLPMPPWRSRAEYPGYNPNAGVTRRASDPAQAADRPAPARVQRFKSLGCVHTPPTVAGGGQNFDPYLPTSVYSPQPPSITENAAMDARGLQEEPEVGTSMVGSGLNPYMDFPPTDTLGYGGPEGAAAEPYGARGPGSLPLGPGPPTNYGPNPCPQQASYPDPTQETWGEFPSHSGLYPGPKALGGTYSQCPRLEHYGQVQVKPEQGCPVGSDSTGLAPCLNAHPSEGPPHPQPLFSHYPQPSPPQYLQSGPYTQPPPDYLPSEPRPCLDFDSPTHSTGQLKAQLVCNYVQSQQELLWEGGGREDAPAQEPSYQSPKFLGGSQVSPSRAKAPVNTYGPGFGPNLPNHKSGSYPTPSPCHENFVVGANRASHRAAAPPRLLPPLPTCYGPLKVGGTNPSCGHPEVGRLGGGPALYPPPEGQVCNPLDSLDLDNTQLDFVAILDEPQGLSPPPSHDQRGSSGHTPPPSGPPNMAVGNMSVLLRSLPGETEFLNSSA
partner: B1 chain

Variants of: B1
Conditions: with gli1_human GLI1, P08151

Variant	effect of a mutation on the interaction
MAELRPSGAPGPTAPPAPGPTAPPAFASLFPPGLHAIYGECRRLYPDQPNPLQVTAIVKYWLGGPDPLDYVSMYRNVGSPSANIPEHWHYISFGLSDLYGDNRVHEFTGTDGPSGFGFELTFRLKRETGESAPPTWPAELMQGLARRVFQSENTFCSGRHVSWHSPLDNSESRIQHMLLTEDPQMQPVQTPFGVVTFLQIVGVCTEELHSAQQWNGQGILELLRTVPIAGGPWLITDMRRGETIFEIDPHLQERVDKGIETDGSNLSGVSAKCAWDDLSRPPEDDEDSRSICIGTQPRRLSGKDTEQIRETLRRGLEINSKPVLPPINPQRQNGLAHDRAPSRKDSLESDSSTAIIPHELIRTRQLESVHLKFNQESGALIPLCLRGRLLHGRHFTYKSITGDMAITFVSTGVEGAFATEEHPYAAHGPWLQILLTEEFVEKMLEDLEDLTSPEEFKLPKEYSWPEKKLKVSILPDVVFDSPLH [Y147R;D159R]	disrupting interaction
MAELRPSGAPGPTAPPAPGPTAPPAFASLFPPGLHAIYGECRRLYPDQPNPLQVTAIVKYWLGGPDPLDYVSMYRNVGSPSANIPEHWHYISFGLSDLYGDNRVHEFTGTDGPSGFGFELTFRLKRETGESAPPTWPAELMQGLARRVFQSENTFCSGRHVSWHSPLDNSESRIQHMLLTEDPQMQPVQTPFGVVTFLQIVGVCTEELHSAQQWNGQGILELLRTVPIAGGPWLITDMRRGETIFEIDPHLQERVDKGIETDGSNLSGVSAKCAWDDLSRPPEDDEDSRSICIGTQPRRLSGKDTEQIRETLRRGLEINSKPVLPPINPQRQNGLAHDRAPSRKDSLESDSSTAIIPHELIRTRQLESVHLKFNQESGARIPLCLRGRLLHGRHFTYKSITGDMAITFVSTGVEGAFATEEHPYAAHGPWLQILLTEEFVEKMLEDLEDLTSPEEFKLPKEYSWPEKKLKVSILPDVVFDSPLH [Y147R;D159R;L380R]	disrupting interaction

Variants of: B1
Conditions: with gli1_human GLI1, P08151
Remark: another data set of the same source

Variant	effect of a mutation on the interaction
D159R	disrupting interaction
MAELRPSGAPGPTAPPAPGPTAPPAFASLFPPGLHAIYGECRRLYPDQPNPLQVTAIVKYWLGGPDPLDYVSMYRNVGSPSANIPEHWHYISFGLSDLYGDNRVHEFTGTDGPSGFGFELTFRLKRETGESAPPTWPAELMQGLARYVFQSENTFCSGAHVSWHSPLDNSESRIQHMLLTEDPQMQPVQTPFGVVTFLQIVGVCTEELHSAQQWNGQGILELLRTVPIAGGPWLITDMRRGETIFEIDPHLQERVDKGIETDGSNLSGVSAKCAWDDLSRPPEDDEDSRSICIGTQPRRLSGKDTEQIRETLRRGLEINSKPVLPPINPQRQNGLAHDRAPSRKDSLESDSSTAIIPHELIRTRQLESVHLKFNQESGALIPLCLRGRLLHGRHFTYKSITGDMAITFVSTGVEGAFATEEHPYAAHGPWLQILLTEEFVEKMLEDLEDLTSPEEFKLPKEYSWPEKKLKVSILPDVVFDSPLH [D159A]	disrupting interaction

Variants of: B1
Conditions: with gli2_mouse Gli2, Q0VGT2

Variant	effect of a mutation on the interaction
D159R	decreasing interaction
MAELRPSGAPGPTAPPAPGPTAPPAFASLFPPGLHAIYGECRRLYPDQPNPLQVTAIVKYWLGGPDPLDYVSMYRNVGSPSANIPEHWHYISFGLSDLYGDNRVHEFTGTDGPSGFGFELTFRLKRETGESAPPTWPAELMQGLARRVFQSENTFCSGRHVSWHSPLDNSESRIQHMLLTEDPQMQPVQTPFGVVTFLQIVGVCTEELHSAQQWNGQGILELLRTVPIAGGPWLITDMRRGETIFEIDPHLQERVDKGIETDGSNLSGVSAKCAWDDLSRPPEDDEDSRSICIGTQPRRLSGKDTEQIRETLRRGLEINSKPVLPPINPQRQNGLAHDRAPSRKDSLESDSSTAIIPHELIRTRQLESVHLKFNQESGARIPLCLRGRLLHGRHFTYKSITGDMAITFVSTGVEGAFATEEHPYAAHGPWLQILLTEEFVEKMLEDLEDLTSPEEFKLPKEYSWPEKKLKVSILPDVVFDSPLH [Y147R;D159R;L380R]	disrupting interaction

Variants of: B1
Conditions: with gli2_mouse Gli2, Q0VGT2
Remark: another data set of the same source

Variant	effect of a mutation on the interaction
D159R	disrupting interaction

Variants of: B2
Conditions: with sufu_human SUFU, Q9UMX1

Variant	effect of a mutation on the interaction
G122A;H123A;L124D	decreasing interaction
